Laboratory results reported in the DeepSol protein solubility set.

assay: soluble on expression in E. coli; label from the status in PepcDB or PDB records

| Sequence | soluble on expression in E. coli |
| --- | --- |
| MNDEDSEERRHHPKVPRLARQSHPEPPGPSSSTSSTPLFTDPTIHTILDQIGQRLASFSESDVKRIKNYLSTVTVTQEACVLLLLPNKEREKLMFAEIERHILENYEYSMIIHRYVNDVLKHAIETQFVNPDKLDESNDAWKDGLKMISEQKMRSSRYTAARARSQRFAIANDSYFPRPEIVPSTDHPVFASRPSVSTQEVRTGRQQIDQEVSGRKREFHGKLIPITGVVEEPSVRINAELQQSETQQIGDSSDQTDTATPISDIATHQDPENEISPSVTEGSNDIADDAGAGDDFSESTTGAVQPEQQASEHSNSEGVEKSSCAESLKEQPDQSSPAVSNTVSENSNTDSEICSGIDQNPNSDNLESTIDVGEPLRNTSDQPSPDPCSDVQIGVNSTTKQSTDPSVNVQLGHKSSDQPSTDPSAHAQLEDNCTIQPSTDPSSNDQLGDNTSDQNSTDPSSDVPMEDPGESGSAASTPPPDWDVAEVPIPQCSGHSDGNIGGTNEVTPPEQEAQVLAPRRSERSRIKNIWLSRDEVERLRYEFVPPPSRKDIPKCTAKKPEAEIPNVEPESSSTVESQRDEDQAVASASSVAEPLEEATTTSVPEPTEFQLSRDIYSTVKPTDEAHSPPIQAQPKKKATPRRKKADDVETVVADGTATIPKPKRKRPPRKKPEPKPNIVFETTPNPPTESFAANNNFQQFQFQNQPGSWTYNNGFGNGYGYGGGTTGYMDNLVGRGFDTVSQQPGFQNQGYEFTGLPANNSNNFPFL | not soluble |
| MNDFSLELPVRTNKPRETGQSILIDNGYPLQFFKDAIAGASDYIDFVKFGWGTSLLTKDLEEKISTLKEHDITFFFGGTLFEKYVSQKKVNEFHRYCTYFGCEYIEISNGTLPMTNKEKAAYIADFSDEFLVLSEVGSKDAELASRQSSEEWLEYIVEDMEAGAEKVITEARESGTGGICSSSGDVRFQIVDDIISSDIDINRLIFEAPNKTLQQGFIQKIGPNVNLANIPFHDAIALETLRLGLRSDTFFLLEHHHHHH | not soluble |
| MNDIEAAFHQYFEIIDADTPELLKTVFDLRYRILCVHNVIPGFDTNNYPNELESDQYDSHSIHFLLRHRPTNTFIGTTRLILPNPLDPMDKFPTELNTHFYPGFVLDSSSRKHTTEVSRFAILSDFFKRKGERNMLSQSTEIGCKAQERRRFPHPMLGLVVGLIQLCARNNIYHLISAMEPALNKLLGFYSLQMNPIGPPADYHGLRTPYYLYLPDLLDRMYQDHRSLWELITDHGRIWPMNLACIHQKTLKTAYTDNVYISE | not soluble |
| MNDLKSKSNIKLMKRVLTTYELRKYLKKYFCLTLDNYLVLAYLDVFKNDEGKYFMRDIISYIGIDQSRIVKSVKDLSKKGYLNKCRDPHDSRNVIIVVSVKQHNYIKNLLSEININET | not soluble |
| MNDNAFTFQTLHPETIMDALFEQGIMVDSGLTPLNSYENRVYQFQDEDRRRFVVKFYRPERWSVDQIREEHQFALELVKDEVPVAAPLAFNGQTLLAHQGYHYAIFPSVGGRQFEADNIDQMEAVGRYLGRLHQTGRKRPFTFRPDIGLAEYLFEPRQVFEDAALIPSGQKAAFLKATDTLLSAVTECWRTDFATLRLHGDCHAGNILWRDGPLFVDLDDARNGPAIQDLWMLLNGDKAEQRMQLETIIEAYEEVSEFDTAEIGLIEPLRAMRLVYYLAWLIRRWGDPAFPKNFPWLTGEDYWQRQTTTFIEQTKILHEPPLQLTPMYLEHHHHHH | not soluble |
| MNDNLYSLIEQRILVLDGAMGTMIQRHGLDEQDYRGERFASHDHPLKGNNDLLVITRPDIIRSIHCDFLDAGADIIETCTFNANPISQSDYQLQDLTRELNVAAAKIARSAADEFTAKTPDKPRFVAGSIGPTNKTLSLSPDVNNPGFRAVTFQEMVDNYTAQLEGLHEGGVDLLLVETVFDTLNCKAALYAIEEYAVKTGWQVPVMVSGTVVDASGRTLSGQTTEAFWISISHMPSLLSVGLNCALGSKQMRPFIEALSNIAESYVSVYPNAGLPNEFGEYDDSPEYMAAQIAGFAESGFVNIVGGCCGTTPTHIRAIAEAVKTLPPRKRPANKHVLRLSGLEPLVVDETTGFINVGERTNVTGSRKF | not soluble |
| MNDRARELASRLIRNFNEASLEHEVREPLYESAAARLGTGTVAHKLGASVDVVAPGKRSCPYHFHHAQEEMFVIIEGEGSLRVAGEMLPIKTGDVLFIPAGPEYPHQIINTSQAPLKYLSISTRETPEVCEYPDSGKYQAMVSANGARVFTANQRTTENVDYWDGEPLEHHHHHH | soluble |
| MNDTAGELEFVPLAANDDETVGQWLDLMALAAETGPRAAPPCNVDMVGSLRFAPPATALDDWVVRSGGRVVGALRLALPDGAPTARVDQLLVHPGRRRRGIGRALWAHARELARKHDRTTLTATVVESLPSGPAQDPGPAAFAAAMGAHRSDIPAGTHQWLDLDRHDPLADGVPAVPAGYSLVTWGTITPDEYAVPVSELELSLGAGPVDRAAQEVRTSYARQFETMRVGRGRRAYHTGAVHDATGALAGYTSVSKTTGNPAYALQGMTVVHREHRGHALGTLLKLANLEYVLRHEPEVRLVETANAEDNHPMIAVNAALGFEPYDRWVFWTAEAGPSD | soluble |
| MNEDNSQNSEGPSRKSFFERLSQLFQGEPKDRQELVDVIRDSEVNDLIDHDTRDMLEGVMEIAEMRVRDIMIPRSQMVTIDRTHNLDALVAIMTDAQHSRYPVISEDKDHVEGILLAKDLLKYLGSNCAPFNIQEVIRPAVVVPESKRVDRLLKEFREERYHMAIVVDEFGGVSGLVTIEDILEEIVGDIEDEFDDEEQKDIRQLSKHTFSVKALTTIEDFNHTFGTKFSDEEVDTVGGLVMTAFGHLPARGEVVDIAGYNFKVTAADSRRVVALQVTVPDLEALSHVAEE | not soluble |
| MNEILKCIGCGAPLQSENKDAPGYVPEHNMFREDVICRRCFRLKNYNEVQDVGMESEDFLNLLTGLSEKKGIIVNVVDVFDFEGSFINAIQRIVGNKKIILVANKIDLLPKQINHRRVKEWLRKSARKYGLEAEDVVLISANKGWGIDELLQSINHVRNKDDVYIVGTTNVGKSTLINKLIEQSVGEKDVVTTSRFPGTTLDMIDIPLDEKSFMFDTPGIIQSHQMTNYVSENELKIIIPKNEIKQRVYQLNEKQTLFFGGLARIDYVSGGKRPLVCFFSNDLNIHRTKTEKANDLWKSQLGALLSPPQDAQQFNLNDVKAVRLETGKTKRDIMISGLGFITIDAGAKVIVRVPKHVDVILRNSILLEHHHHHH | soluble |
| MNEIQKYIAANEPKIMEDLFSLIRIPSISALPEHHDDMLACAQRWAQLLLEAGVDEALVMPSKGNPIVFAQKIVDPNAKTVLVYAHYDVMPAEPLELWKSQPFEPEVRDGYIWARGADDDKGQSFIQVKAFEYLVKNELLKNNVKFIFEGEEEIGSPSLEAFCEEHKELLKADVILVSDTSMLGAELPSLTTGLRGLAYWEIEVTGPNRDLHSGHFGGAVANPINVLCEIISKVTDKDGRITVPGFYDDVEEVPQAEREMIAHIPFDEKKYKEAIGVKELFGEKGYSTLERNSCRPSFDVCGIWGGYTGEGSKTVLPSKAYAKVSCRLVAHQDHHKISQMFADYILQMAPDTVQVKVTPMHGGQGYVCPISLPAYQAAEKGFEIAFGKKPLAVRRGGSIPIISTFEQVLGTKTVLMGFGLESDAIHSPNENFSLDIFRKGIEAVIEFHQEYAKR | not soluble |
| MNELQAYHLSRNQFCPNLFFLAMNNVAQTDTPQQYDLRILRALRRITRSIALHSRQLAAVSHITAPQLMCLRAVIAGGPMTATAISREIHVSPSTVVGILDRLEDKGLIRRERGREDRRIVFVTATEGGRTLAAEAPSPLQKHLADGLNALPELEQATITLALERIVALMEQEGHAVEAAGEGSPPILEMPTGGAPPESGLVV | not soluble |
| MNEQRLSMRLERVATHVPAGARLADIGSDHGYLPVALLNRGAVSAAVAGEVALTPFYAAERTVRENDLDQQISVRLADGLAAIEPTDRITAISLCGMGGETIRDILESGKARLSGQERLILQPNGGEQPLRVWLMEHNYRILDEEVLRENRFDYEIIVAERTGPMIYTAEQLYFGPIQMQTRSPAFLLKWQRLLGKKHKALSNFARARKAVPEEKMQDLAQQIRWITALLN | not soluble |
| MNFGACPADIEDDEVVASFNVYASPALVNQAHIFQYPLRRRQRPYEATEIKLFSTSGTVAEESEALLAQGKGSSVLQPGSRLTMKCSLDTFGSPSFRPLPEFAPDMLGQMELQRHHTFNYTLQSQPFLPQSNYVLGYITLEGIHLTPVSTIQQFTPALSIPESSTGAVRVTEAFCSQSNSTAMPGFAAADRIQRELRRQRSRVLNGEADTAQEIQFFRDDSVESSAMRSRLCSSTLERITGNLNAASEPAEVENSLFPPEILQSGGISGGDEAHPSMIIHRFANCKSVAEQTNQLLQRCHILTLQRLQNIVVPYTSNEVVKTMSTVPEAQLVEALKSCAVWLHGVWVSRYCDQFRGSVAALREVILARFYQSEDGSVARADFNAWITTSAARRSIKEILATVAVLNTDEPDPSKRRWRLKYVPEDRAAREANLRDFKAKFAAEEASQHEAWRRRCAQVMAHIPYINAGRPVSQLCLRPRSTPPTTGTAASATLPYGSPNAAQSIAPSVSSMTSGHSGSGVTASASPFSSPAPGADLGFKDADIAPIRHYIRELFAEHGVINKQRVKDLVIKAQEARYPHATKAMLSTALQQCLDKFTDATWILKSAGEPIVDYYRPAILYVVLELRQFEMAALMKRLEEVVRARGLTSPPESAALRGRIGGASGTLEAVVQRVVAEVAEFKAGGRLWHIKGGNLMNE | not soluble |
| MNFIYPAVIAAVQEGEKAWGTTHPNPPVGAVVLSSNGSIVGRGHTQPPGGSHAEIMALRQAGENTKGGTLVVTLEPCNHWGRTGPCSHAISESGIEHVVYLMQDTGSLEKGGAEYLRRQGLKVTFLGLSVAALIPWQASKDRGWPYVVGKTAHTLDGFVAAEDHSSKWITGSASRDYANRQRRHFDAIIVGTGTVKADNPALTARKDDGTLLPHQPLKVVIGTSKISEGTQLARSGFVQFSTIEEALVQLWDRGVRYVLVEGGPHLLHGFLTSGNLDQLHSYSAPMLLTRGVSLLQEEEKKSAESANTTIASALRGSPQSISMLGDDILQVINI | not soluble |
| MNGKARISIAIDGPAGAGKSTIAKIISKTLNILYLDTGAMYRAVALKAIRESVDTLNREQMSKLVENIDIKIAHSEDIQRIFLDGEDVTDFIRTPEVSIGASNVATVPAVRLKMVELQREIAKKNSVVMDGRDIGTYVLPDATLKFFLTASVEARAIRRYNELLSKGITQITLEDVKKDIEYRDKNDSNREFAPLSKAPDAIEIDTTDLTIEQVVNKIMEYAKDYVC | soluble |
| MNGKPDLVITDSQVFKQVNAKLDRSVPLTSFSILMARYKGDLDKFYSGAKAIKNLKAGDKVLIAEACTHHQLKGDIAREKLPTWLEETCPGIIVHNCSGKDFPKNLNEYALVIHCGGCMFNKAEIMNRIGICDDALVPITNFGTSIAEINNILDRVMEPLKLEHHHHHH | not soluble |
| MNGRSLIFSILFVFSELKCDDTDENDQHGTIYQFQAKNIDGKMVSMEKYRDKVVLFTNVASYCGYTDSNYNAFKELDGIYREKGFRVAAFPCNQFEKQEPETEGKILDFVKSSYTYAPDMYSKIEVNGQNTHPLWKFLKKERGSSLSADIPWNFSKFLVDKNGHVVGRYSHSVNPIDLEEEISRLLNS | not soluble |
| MNGTKQQRRRGDTRQRIQDVALGLFAEQGYEKTSLREIAESLDVTKAALYYHFKTKEEILVSIFEDLSRPLEDLIEWGREQPHTLETKQEIIRRYSEALAGAAPLFRFMQENQATVRDLRIGELFKHRMFGLRDILMDPEADLVDQVRCISALFTLHAGMFVLRDLEGDPEEQRAAVLEVATDLITQAHRGAAGA | not soluble |
